Test results taken from patent US20130178605A1 (GLENMARK PHARMACEUTICALS S A, published 2013).

T1: human CD19 cell-surface protein (on Raji cells) (human, UniProt P15391 20-556)
T1 construct: whole, on cells; also called hCD19
T1 sequence (looked up): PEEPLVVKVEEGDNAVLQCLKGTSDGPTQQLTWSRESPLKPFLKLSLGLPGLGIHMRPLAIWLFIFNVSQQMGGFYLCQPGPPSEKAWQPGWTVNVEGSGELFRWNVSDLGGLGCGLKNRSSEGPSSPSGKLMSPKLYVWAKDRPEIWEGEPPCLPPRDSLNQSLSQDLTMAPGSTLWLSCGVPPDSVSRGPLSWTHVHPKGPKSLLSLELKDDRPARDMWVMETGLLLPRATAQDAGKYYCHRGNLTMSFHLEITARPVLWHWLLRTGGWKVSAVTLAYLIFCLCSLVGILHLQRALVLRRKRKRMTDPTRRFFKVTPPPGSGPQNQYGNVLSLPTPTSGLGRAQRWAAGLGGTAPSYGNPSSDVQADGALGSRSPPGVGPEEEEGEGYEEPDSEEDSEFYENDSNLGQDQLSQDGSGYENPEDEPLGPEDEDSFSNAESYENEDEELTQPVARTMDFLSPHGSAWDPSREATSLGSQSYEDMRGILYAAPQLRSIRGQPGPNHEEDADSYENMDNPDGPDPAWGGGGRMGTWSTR


Assays:
VL-BT beta F405A chain = test: co-expression in HEK293-EBNA, protein-A purification, non-reducing SDS-PAGE scanning densitometry
[1] = biological target: T1, human CD19 cell-surface protein (on …); test: flow cytometry on Raji cells (CD19+ VLA2-), 10 µg/ml, detected by c-myc tag (FIG. 31A) and by His tag (FIG. 31B)
[2] = biological target: T2, VL-Fc (BTB)-F405A-Y407S chain; test: co-expression in HEK293-EBNA, protein-A purification, non-reducing SDS-PAGE scanning densitometry, impurities omitted
T2 construct: Human IGHG1 Fc chain with the named substitutions (EU numbering), fused to a variable light-chain kappa domain antibody

[3] = biological target: T3, VL-Fc (BTB)-F405A-Y407S-K409R-T411R chain; test: as above
T3 construct: Human IGHG1 Fc chain with the named substitutions (EU numbering), fused to a variable light-chain kappa domain antibody

[4] = biological target: T4, VL-Fc (BTB)-F405A-Y407S-K409R chain; test: as above
T4 construct: Human IGHG1 Fc chain with the named substitutions (EU numbering), fused to a variable light-chain kappa domain antibody

[5] = biological target: T5, VL-Fc (BTB)-Y407S-K409R chain; test: as above
T5 construct: Human IGHG1 Fc chain with the named substitutions (EU numbering), fused to a variable light-chain kappa domain antibody

[6] = biological target: T6, VL-Fc (BTB)-F405A-K409R chain; test: as above
T6 construct: Human IGHG1 Fc chain with the named substitutions (EU numbering), fused to a variable light-chain kappa domain antibody

VL-BT gamma chain = test: co-expression in HEK293-EBNA, protein-A purification, non-reducing SDS-PAGE scanning densitometry
VL-Fc IGHGA chain = biological target: T7, VL-Fc IGHGA chain; test: as above
T7 construct: Human IGHG1 Fc chain with CH3 substitutions S364T, K392L, T394W, K409I, T411R (EU numbering), fused to VL

[7] = biological target: T8, VL-Fc (BTB)-K409R-T411R chain; test: co-expression in HEK293-EBNA, protein-A purification, non-reducing SDS-PAGE scanning densitometry, impurities omitted
T8 construct: Human IGHG1 Fc chain with the named substitutions (EU numbering), fused to a variable light-chain kappa domain antibody

[8] = biological target: T1, human CD19 cell-surface protein (on …); test: flow cytometry on Raji cells, detected with mouse anti His tag antibody
[9] = biological target: T9, alpha 2 subunit of the human VLA-2 receptor (on HT1080 cells) (human, UniProt P17301 30-1181); test: flow cytometry on HT1080 cells, detected with mouse anti c-myc tag antibody
T9 construct: whole, on cells; also called hVLA2

Row | hetero-dimer formation percentage [2] | hetero-dimer formation percentage [3] | hetero-dimer formation percentage [4] | hetero-dimer formation percentage [5] | hetero-dimer formation percentage [6] | Binder | also measured
1 |  |  |  |  |  | BT alpha IGHG3 chain (other) DKTHTCPPCPAPELLGGPSVFLFPPKPKDTLMISRTPEVTCVVVDVSHEDPEVKFNWYVDGVEVHNAKTKPREEQYNSTYRVVSVLTVLHQDWLNGKEYKCKVSNKALPAPIEKTISKAKGQPREPQVYTLPPSREEMTKNQVKLVCLVTGFYPSDIAVEWESSGQPENNYYTTPPMLDSDGSFSLVSWLNVDKSRWQQGNIFSCSVMHEALHNRFTQKSLSLSPGK | hetero-dimer percent of the protein-A purified material (VL-BT beta F405A chain): ≥ 91%
2 |  |  |  |  |  | anti-hCD19_anti-hVLA2 bispecific antibody (bispecific antibody, human IgG1, kappa, Four distinct chains; also called anti-hCD19_anti-VLA2 bispecific antibody) heavy 1: QVQLQESGPGLVKPSETLSLTCTVSGFSLTNYGIHWIRQPPGKGLEWLGVIWARGFTNYNSALMSRLTISKDNSKNQVSLKLSSVTAADTAVYYCARANDGVYYAMDYWGQGTLVTVSSASTKGPSVFPLAPSSKSTSGGTAALGCLVKDYFPEPVTVSWNSGALTSGVHTFPAVLQSSGLYSLSSVVTVPSSSLGTQTYICNVNHKPSNTKVDKKVEPKSCDKTHTCPPCPAPELLGGPSVFLFPPKPKDTLMISRTPEVTCVVVDVSHEDPEVKFNWYVDGVEVHNAKTKPREEQYNSTYRVVSVLTVLHQDWLNGKEYKCKVSNKALPAPIEKTISKAKGQPREPQVYTLPPSRDELTKNQVKLVCLVTGFYPSDIAVEWESNGQPENNYYTTPPVLDSDGSFSLVSWLNVDKSRWQQGNVFSCSVMHEALHNHYTQKSLSLSPGKHHHHHH light 1: DFVMTQSPAFLSVTPGEKVTITCSAQSSVNYIHWYQQKPDQAPKKLIYDTSKLASGVPSRFSGSGSGTDYTFTISSLEAEDAATYYCQQWTTNPLTFGQGTKVEIKRTVAAPSVFIFPPSDEQLKSGTASVVCLLNNFYPREAKVQWKVDNALQSGNSQESVTEQDSKDSTYSLSSTLTLSKADYEKHKVYACEVTHQGLSSPVTKSFNRGEC heavy 2: QVQLVQSGGGVVQPGRSLRLSCAASGVSLPDYGVSWVRQAPGKGLEWVAVIWGSETTYYNSALKSRFTISRDNSKNTLYLQMNSLRAEDTAVYYCAKHYYYGGSYAMDYWGQGTLVTVSSASTKGPSVFPMAPSSKSTSGGTANLACLVKEYFPEPVTVSWNSGALTSGVFTAPAVLSSSGLYNLVSLVKVPSSSLGTQTYICNVNHKPSNTKVDKKVEPKSCDKTHTCPPCPAPELLGGPSVFLFPPKPKDTLMISRTPEVTCVVVDVSHEDPEVKFNWYVDGVEVHNAKTKPREEQYNSTYRVVSVLTVLHQDWLNGKEYKCKVSNKALPAPIEKTISKAKGQPREPEVATFPPSRDELTKNQVTLVCLVTGFYPSDIAVEWESNGQPENNYKTDPPLLESDGSFALSSRLRVDKSRWQQGNVFSCSVMHEALHNHYTQKSLSLSPGKEQKLISEEDLN light 2: DIQMTQSPSSLSASVGDRVTITCRASQDISKYLNWYQQKPGKAIKLLIYHTSRLHSGVPSRFSGSGSGTDFTLTISSLQPEDFATYYCQQGATLPYTFGPGTKVDIKRTVAAPKVTIFPPSDEQLKSGTATVLCLLEKFYPREAKVQWKVDNALQSGNSQEGVMEQDSKDSTYMLFSWLTLSKADYEKHKVYACEVTHQGLSSPVTKSFNRGEC | binding result [1]: binds
3 | 7% | 9% | 15% | 5% | 4% | Fc (BTA)-F405S-Y407V-K409W-T411N chain (other, Human IGHG1 Fc chain with the named substitutions (EU numbering)) DKTHTCPPCPAPELLGGPSVFLFPPKPKDTLMISRTPEVTCVVVDVSHEDPEVKFNWYVDGVEVHNAKTKPREEQYNSTYRVVSVLTVLHQDWLNGKEYKCKVSNKALPAPIEKTISKAKGQPREPQVYTLPPSRDELTKNQVSLTCLVKGFYPSDIAVEWESNGQPENNYKTTPPVLDSDGSFSLVSWLNVDKSRWQQGNVFSCSVMHEALHNHYTQKSLSLSPGK | 
4 |  |  |  |  |  | BT delta chain (other) DKTHTCPPCPAPELLGGPSVFLFPPKPKDTLMISRTPEVTCVVVDVSHEDPEVKFNWYVDGVEVHNAKTKPREEQYNSTYRVVSVLTVLHQDWLNGKEYKCKVSNKALPAPIEKTISKAKGQPREPQVYTMPPSRDELTKNQVNLACLVKEFYPSDIAVEWESNGQPENNYFTAPPVLSSDGSFNLVSLLKVDKSRWQQGNVFSCSVMHEALHNHYTQKSLSLSPGK | hetero-dimer percent of the protein-A purified material (VL-BT gamma chain): ≥ 52.1%
5 |  |  |  |  |  | Fc IGHAG chain (other, Human IGHG1 Fc chain with CH3 substitutions Q347E, Y349H, K370R, V397R, D399E, F405A, Y407T (EU numbering)) DKTHTCPPCPAPELLGGPSVFLFPPKPKDTLMISRTPEVTCVVVDVSHEDPEVKFNWYVDGVEVHNAKTKPREEQYNSTYRVVSVLTVLHQDWLNGKEYKCKVSNKALPAPIEKTISKAKGQPREPEVHTLPPSRDELTKNQVSLTCLVRGFYPSDIAVEWESNGQPENNYKTTPPRLESDGSFALTSKLTVDKSRWQQGNVFSCSVMHEALHNHYTQKSLSLSPGK | hetero-dimer percent of the protein-A purified material (VL-Fc IGHGA chain): ≥ 54%
6 | 50% | 53% | 52% | 25% | 25% | Fc (BTA)-Y407V-K409W-T411N chain (other, Human IGHG1 Fc chain with the named substitutions (EU numbering)) DKTHTCPPCPAPELLGGPSVFLFPPKPKDTLMISRTPEVTCVVVDVSHEDPEVKFNWYVDGVEVHNAKTKPREEQYNSTYRVVSVLTVLHQDWLNGKEYKCKVSNKALPAPIEKTISKAKGQPREPQVYTLPPSRDELTKNQVSLTCLVKGFYPSDIAVEWESNGQPENNYKTTPPVLDSDGSFFLVSWLNVDKSRWQQGNVFSCSVMHEALHNHYTQKSLSLSPGK | 
7 | 90% | 88% | 72% | 74% | 60% | Fc (BTA)-S364K-T366V-K370T-K392Y-K409W-T411N chain (other, Human IGHG1 Fc chain with the named substitutions (EU numbering)) DKTHTCPPCPAPELLGGPSVFLFPPKPKDTLMISRTPEVTCVVVDVSHEDPEVKFNWYVDGVEVHNAKTKPREEQYNSTYRVVSVLTVLHQDWLNGKEYKCKVSNKALPAPIEKTISKAKGQPREPQVYTLPPSRDELTKNQVKLVCLVTGFYPSDIAVEWESNGQPENNYYTTPPVLDSDGSFFLYSWLNVDKSRWQQGNVFSCSVMHEALHNHYTQKSLSLSPGK | hetero-dimer formation percentage [7]: 32%
8 |  |  |  |  |  | anti-hVLA2 antibody (antibody, human IgG1, kappa, V domains shown, Control with a single specificity, obtained by co-transfection of chain one with chain two of the bispecific antibody) VH: QVQLQESGPGLVKPSETLSLTCTVSGFSLTNYGIHWIRQPPGKGLEWLGVIWARGFTNYNSALMSRLTISKDNSKNQVSLKLSSVTAADTAVYYCARANDGVYYAMDYWGQGTLVTVSS VL: DFVMTQSPAFLSVTPGEKVTITCSAQSSVNYIHWYQQKPDQAPKKLIYDTSKLASGVPSRFSGSGSGTDYTFTISSLEAEDAATYYCQQWTTNPLTFGQGTKVEIKR | binding result [8]: no binding
9 |  |  |  |  |  | anti-hCD19 antibody (antibody, human IgG1, V domains shown, Control with a single specificity, obtained by co-transfection of chain three with chain four of the bispecific antibody) VH: QVQLVQSGGGVVQPGRSLRLSCAASGVSLPDYGVSWVRQAPGKGLEWVAVIWGSETTYYNSALKSRFTISRDNSKNTLYLQMNSLRAEDTAVYYCAKHYYYGGSYAMDYWGQGTLVTVSS VL: DIQMTQSPSSLSASVGDRVTITCRASQDISKYLNWYQQKPGKAIKLLIYHTSRLHSGVPSRFSGSGSGTDFTLTISSLQPEDFATYYCQQGATLPYTFGPGTKVDIKR | binding result [9]: no binding
